Biological target: T1, Aβ42-GFP (Homo sapiens, UniProt P05067)
T1 construct: a chimeric fusion of the human Aβ(1-42) peptide (Aβ42) with GFP; expressed in transfected cells; host or cells: E. coli BL21(DE3)
Assay: High-throughput sequencing of pSICLOPPS vectors isolated after bacterial sorting for enhanced Aβ42-GFP fluorescence
Conditions: after the second round of bacterial sorting; relative to total TXXXR reads
Text: On the other hand, very few bioactive sequences resembling AβC5-34 should exist. […] The peptide-encoding vectors contained in these clones were isolated and the peptide-encoding region of approximately 5.6 million of these plasmids was sequenced using an Ion Torrent high-throughput sequencing platform. […] First, pentapeptides were the dominant peptide species within the sorted pool (FIG. 12D), in agreement with previous observations (FIG. 8G). Second, the most prevalent motif among the selected pentapeptide sequences were TXXXR pentapeptides (˜47% of the selected pentapeptide-encoding pSICLOPPS plasmids; ˜42% of the unique selected pentapeptide sequences) (Table 1), in accordance with previous observations (FIG. 8G). […] At position 2, Thr, Ala, and Val were preferred, while aromatic residues (Phe, Trp, Tyr) were completely excluded from the selected TXXXR peptide pool, in full agreement with our site-directed mutagenesis studies. At the highly variable position 3, the complete absence of the negatively charged amino acids Glu and Asp among the selected sequences was notable (FIG. 12E). […] It is noteworthy, that Lys and Gln residues were practically absent from all positions, while the β sheet-breaking amino acid Pro that is typically included in designed peptide-based inhibitors of amyloid aggregation appeared with strikingly low frequencies (FIG. 12E).
Electrocompetent E. coli BL21(DE3) cells (Novagen, USA) carrying either the expression vector pETSOD1(A4V)-GFP, which produces SOD1(A4V)-GFP under control of the strong bacteriophage T7 promoter, or pETAβ42-GFP, which produces Aβ42-GFP under control of the T7 promoter, were co-transformed with the combined pSICLOPPS-NuX1X2X3-X5 vector library. Approximately 10^8 transformants carrying both the vector library and either pETSOD1(A4V)-GFP or pETAβ42-GFP vectors were harvested, pooled together, and grown in Luria-Bertani (LB) liquid medium containing either 0.005% (pETSOD1(A4F)-GFP) or 0.002% (pETAβ42-GFP) L-arabinose—the inducer of cyclic peptide production—at 37° C. with shaking. When the optical density at 600 nm (OD600) of the bacterial culture was about 0.5, 0.01 (pETSOD1(A4F)-GFP) or 0.1 (pETAβ42-GFP) mM isopropyl-β-D-thiogalactoside (IPTG) was added to the medium to induce overexpression of the reporter. […] The isolated cells were re-grown and screened for additional rounds in an identical manner until the desired enrichment in high-fluorescence clones was achieved.
For the characterization of the initial libraries, a combined pSICLOPPS-NuX1X2X3-X5 vector library was prepared containing approximately equal amounts of each one of the tetra-, penta- and hexapeptide sub-libraries. These samples were digested with NcoI and BsrGI and the resulting ˜250 bp product that contained the variable peptide-encoding region was isolated. High-throughput sequencing analysis was performed using an Ion Torrent high-throughput sequencing platform. From the obtained data, all the sequences with mismatches outside of the variable peptide-encoding region were removed, and only the 12-, 15- or 18-bp-long peptide-encoding sequences were subjected to further analysis. The libraries of the selected cyclic peptides that enhance either SOD1(A4V)-GFP or Aβ42-GFP fluorescence were sequenced in a similar manner, with the only exception being that all sequences including stop codons were discarded from subsequent analysis.

Substance | Reads/Total TXXXR reads (%)
AβC5-2 (TTYAR; cyclic) | 16.023%
AβC5-3 (TTVDR; cyclic) | 11.276%
AβC5-5 (TTTWR; cyclic pentapeptide) | 9.228%
AβC5-7 (TTLHR; cyclic pentapeptide) | 7.046%
AβC5-12 (TTWAR; cyclic) | 3.466%
AβC5-13 (TALDR; cyclic) | 3.301%
AβC5-15 (TANVR; cyclic) | 2.516%
AβC5-17 (TTTAR; cyclic) | 2.110%
AβC5-18 (TTIAR; cyclic) | 1.953%
AβC5-20 (TTISR; cyclic) | 1.948%
AβC5-21 (TTWCR; cyclic) | 1.908%
AβC5-22 (TVLWR; cyclic) | 1.883%
AβC5-26 (TAWCR; cyclic) | 1.493%
AβC5-27 (TTSAR; cyclic) | 1.482%
AβC5-29 (TTLER; cyclic) | 1.447%
AβC5-30 (TSTAR; cyclic) | 1.444%

Substance | Reads/Total TXXXR reads (%)
AβC5-35 (TVRDR; head-to-tail cyclic) | 1.337%
AβC5-41 (TGWAR; head-to-tail cyclic) | 1.145%
AβC5-44 (TAWAR; cyclic pentapeptide) | 1.094%
AβC5-45 (TTWVR; cyclic pentapeptide) | 1.094%
AβC5-46 (TLLWR; cyclic pentapeptide) | 1.049%
AβC5-47 (TTIDR; cyclic pentapeptide) | 1.038%
AβC5-50 (TALAR; cyclic pentapeptide) | 1.022%
AβC5-51 (TSVDR; cyclic pentapeptide) | 1.012%
AβC5-53 (TTVWR; cyclic pentapeptide) | 0.982%
AβC5-66 (TTHWR; cyclic pentapeptide) | 0.752%
AβC5-67 (TARDR; cyclic pentapeptide) | 0.747%
AβC5-73 (TTRDR; cyclic pentapeptide) | 0.678%
AβC5-80 (TSVHR; cyclic) | 0.535%
AβC5-89 (TATDR; cyclic) | 0.420%
AβC5-94 (TVLFR; cyclic) | 0.391%

Same assay, conditions: after the second round of bacterial sorting; relative to total pentapeptide reads

Substance | Reads/Total pentapeptide reads (%)
AβC5-2 (TTYAR; cyclic) | 7.506%
AβC5-3 (TTVDR; cyclic) | 5.282%
AβC5-5 (TTTWR; cyclic pentapeptide) | 4.323%
AβC5-7 (TTLHR; cyclic pentapeptide) | 3.301%
AβC5-12 (TTWAR; cyclic) | 1.624%
AβC5-13 (TALDR; cyclic) | 1.547%
AβC5-15 (TANVR; cyclic) | 1.179%
AβC5-17 (TTTAR; cyclic) | 0.989%
AβC5-18 (TTIAR; cyclic) | 0.915%
AβC5-20 (TTISR; cyclic) | 0.912%
AβC5-21 (TTWCR; cyclic) | 0.894%
AβC5-22 (TVLWR; cyclic) | 0.882%
AβC5-26 (TAWCR; cyclic) | 0.699%
AβC5-27 (TTSAR; cyclic) | 0.694%
AβC5-29 (TTLER; cyclic) | 0.678%
AβC5-30 (TSTAR; cyclic) | 0.676%

Substance | Reads/Total pentapeptide reads (%)
AβC5-35 (TVRDR; head-to-tail cyclic) | 0.626%
AβC5-41 (TGWAR; head-to-tail cyclic) | 0.537%
AβC5-44 (TAWAR; cyclic pentapeptide) | 0.512%
AβC5-45 (TTWVR; cyclic pentapeptide) | 0.512%
AβC5-46 (TLLWR; cyclic pentapeptide) | 0.492%
AβC5-47 (TTIDR; cyclic pentapeptide) | 0.486%
AβC5-50 (TALAR; cyclic pentapeptide) | 0.479%
AβC5-51 (TSVDR; cyclic pentapeptide) | 0.474%
AβC5-53 (TTVWR; cyclic pentapeptide) | 0.460%
AβC5-66 (TTHWR; cyclic pentapeptide) | 0.352%
AβC5-67 (TARDR; cyclic pentapeptide) | 0.350%
AβC5-73 (TTRDR; cyclic pentapeptide) | 0.318%
AβC5-80 (TSVHR; cyclic) | 0.251%
AβC5-89 (TATDR; cyclic) | 0.197%
AβC5-94 (TVLFR; cyclic) | 0.183%

Same assay, conditions: after the second round of bacterial sorting; relative to total peptide reads

Substance | Reads/Total peptide reads (%)
AβC5-2 (TTYAR; cyclic) | 6.727%
AβC5-3 (TTVDR; cyclic) | 4.734%
AβC5-5 (TTTWR; cyclic pentapeptide) | 3.874%
AβC5-7 (TTLHR; cyclic pentapeptide) | 2.958%
AβC5-12 (TTWAR; cyclic) | 1.455%
AβC5-13 (TALDR; cyclic) | 1.386%
AβC5-15 (TANVR; cyclic) | 1.056%
AβC5-17 (TTTAR; cyclic) | 0.886%
AβC5-18 (TTIAR; cyclic) | 0.820%
AβC5-20 (TTISR; cyclic) | 0.818%
AβC5-21 (TTWCR; cyclic) | 0.801%
AβC5-22 (TVLWR; cyclic) | 0.791%
AβC5-26 (TAWCR; cyclic) | 0.627%
AβC5-27 (TTSAR; cyclic) | 0.622%
AβC5-29 (TTLER; cyclic) | 0.607%
AβC5-30 (TSTAR; cyclic) | 0.606%

Substance | Reads/Total peptide reads (%)
AβC5-35 (TVRDR; head-to-tail cyclic) | 0.561%
AβC5-41 (TGWAR; head-to-tail cyclic) | 0.481%
AβC5-44 (TAWAR; cyclic pentapeptide) | 0.459%
AβC5-45 (TTWVR; cyclic pentapeptide) | 0.459%
AβC5-46 (TLLWR; cyclic pentapeptide) | 0.440%
AβC5-47 (TTIDR; cyclic pentapeptide) | 0.436%
AβC5-50 (TALAR; cyclic pentapeptide) | 0.429%
AβC5-51 (TSVDR; cyclic pentapeptide) | 0.425%
AβC5-53 (TTVWR; cyclic pentapeptide) | 0.412%
AβC5-66 (TTHWR; cyclic pentapeptide) | 0.316%
AβC5-67 (TARDR; cyclic pentapeptide) | 0.314%
AβC5-73 (TTRDR; cyclic pentapeptide) | 0.285%
AβC5-80 (TSVHR; cyclic) | 0.225%
AβC5-89 (TATDR; cyclic) | 0.176%
AβC5-94 (TVLFR; cyclic) | 0.164%

Same assay, conditions: high-throughput sequencing of isolated pSICLOPPS-NuX1X2X3-X5 vectors after the second round of bacterial sorting for enhanced Aβ42-GFP fluorescence; selected cyclo-TXXXR pentapeptides

Substance | Number of reads
AβC5-2 (TTYAR; cyclic) | 304,753
AβC5-3 (TTVDR; cyclic) | 214,461
AβC5-5 (TTTWR; cyclic pentapeptide) | 175,510
AβC5-7 (TTLHR; cyclic pentapeptide) | 134,018
AβC5-12 (TTWAR; cyclic) | 65,929
AβC5-13 (TALDR; cyclic) | 62,792
AβC5-15 (TANVR; cyclic) | 47,855
AβC5-17 (TTTAR; cyclic) | 40,135
AβC5-18 (TTIAR; cyclic) | 37,150
AβC5-20 (TTISR; cyclic) | 37,044
AβC5-21 (TTWCR; cyclic) | 36,295
AβC5-22 (TVLWR; cyclic) | 35,820
AβC5-26 (TAWCR; cyclic) | 28,391
AβC5-27 (TTSAR; cyclic) | 28,188
AβC5-29 (TTLER; cyclic) | 27,514
AβC5-30 (TSTAR; cyclic) | 27,456

Substance | Number of reads
AβC5-35 (TVRDR; head-to-tail cyclic) | 25,428
AβC5-41 (TGWAR; head-to-tail cyclic) | 21,784
AβC5-44 (TAWAR; cyclic pentapeptide) | 20,807
AβC5-45 (TTWVR; cyclic pentapeptide) | 20,798
AβC5-46 (TLLWR; cyclic pentapeptide) | 19,957
AβC5-47 (TTIDR; cyclic pentapeptide) | 19,735
AβC5-50 (TALAR; cyclic pentapeptide) | 19,433
AβC5-51 (TSVDR; cyclic pentapeptide) | 19,249
AβC5-53 (TTVWR; cyclic pentapeptide) | 18,669
AβC5-66 (TTHWR; cyclic pentapeptide) | 14,304
AβC5-67 (TARDR; cyclic pentapeptide) | 14,213
AβC5-73 (TTRDR; cyclic pentapeptide) | 12,894
AβC5-80 (TSVHR; cyclic) | 10,181
AβC5-89 (TATDR; cyclic) | 7,984
AβC5-94 (TVLFR; cyclic) | 7,442
